Results taken from patent US20150344570A1 (published 2015).

B1: GpH7-A5/GpH7-B3 variant S267_19Q/GpL16-k0 (antibody, human IgG1, kappa)
heavy 1: not shown
heavy 2: not shown
light: DIVMTQSPLSLPVTPGEPASISCQASESLVHSNRNTYLHWYLQKPGQSPQLLIYKVSNRFSGVPDRFSGSGSGTDFTLKISRVEAEDVGVYYCSQNTHVPPTFGQGTKVEIERTVAAPSVFIFPPSDEQLKSGTASVVCLLNNFYPREAKVQWKVDNALQSGNSQESVTEQDSKDSTYSLSSTLTLSKADYEKHKVYACEVTHQGLSSPVTKSFNRGEC
notes: He Ab; alteration in one H chain only; also called He Ab
B2: GpH7-A5/GpH7-B3 variant E269_06M/GpL16-k0 (antibody, human IgG1, kappa)
heavy 1: not shown
heavy 2: not shown
light: B1 light
notes: Heterodimerized anti-glypican-3 IgG1; mutation in the GpH7-B3 chain only; also called He Ab E269M
B3: GpH7-A5/GpH7-B3 variant S267_20W/GpL16-k0 (antibody, human IgG1, kappa)
heavy 1: not shown
heavy 2: not shown
light: B1 light
notes: as for B1
B4: GpH7-A5/GpH7-B3 variant E269_08L/GpL16-k0 (antibody, human IgG1, kappa)
heavy 1: not shown
heavy 2: not shown
light: B1 light
notes: Heterodimerized anti-glypican-3 IgG1; mutation in the GpH7-B3 chain only; also called He Ab E269L
B5: GpH7-A5/GpH7-B3 variant V266_19Q/GpL16-k0 (antibody, human IgG1, kappa)
heavy 1: not shown
heavy 2: not shown
light: B1 light
notes: as for B1
B6: GpH7-A5/GpH7-B3 variant S267_12R/GpL16-k0 (antibody, human IgG1, kappa)
heavy 1: not shown
heavy 2: not shown
light: B1 light
notes: Heterodimerized anti-glypican-3 IgG1; mutation in the GpH7-B3 chain only; also called He Ab S267R
B7: GpH7-A5/GpH7-B3 variant V266_15Y/GpL16-k0 (antibody, human IgG1, kappa)
heavy 1: not shown
heavy 2: not shown
light: B1 light
notes: Heterodimerized anti-glypican-3 IgG1; mutation in the GpH7-B3 chain only; also called He Ab V266Y
B8: GpH7-A5/GpH7-B3 variant S267_16H/GpL16-k0 (antibody, human IgG1, kappa)
heavy 1: not shown
heavy 2: not shown
light: B1 light
notes: as for B1
B9: GpH7-A5/GpH7-B3 variant S267_04F/GpL16-k0 (antibody, human IgG1, kappa)
heavy 1: not shown
heavy 2: not shown
light: B1 light
notes: Heterodimerized anti-glypican-3 IgG1; mutation in the GpH7-B3 chain only; also called He Ab S267F
B10: GpH7-A5/GpH7-B3 variant E269_12R/GpL16-k0 (antibody, human IgG1, kappa)
heavy 1: not shown
heavy 2: not shown
light: B1 light
notes: Heterodimerized anti-glypican-3 IgG1; mutation in the GpH7-B3 chain only; also called He Ab E269R
B11: GpH7-A5/GpH7-B3 variant V266_20W/GpL16-k0 (antibody, human IgG1, kappa)
heavy 1: not shown
heavy 2: not shown
light: B1 light
notes: Heterodimerized anti-glypican-3 IgG1; mutation in the GpH7-B3 chain only; also called He Ab V266W
B12: GpH7-A5/GpH7-B3 variant E269_14T/GpL16-k0 (antibody, human IgG1, kappa)
heavy 1: not shown
heavy 2: not shown
light: B1 light
notes: Heterodimerized anti-glypican-3 IgG1; mutation in the GpH7-B3 chain only; also called He Ab E269T
B13: GpH7-A5/GpH7-B3 variant S267_16H/GpL16-k0 (antibody, human IgG1, kappa)
heavy 1: not shown
heavy 2: not shown
light: B1 light
notes: Heterodimerized anti-glypican-3 IgG1; mutation in the GpH7-B3 chain only; also called He Ab S267H
B14: GpH7-A5/GpH7-B3 variant V266_20W/GpL16-k0 (antibody, human IgG1, kappa)
heavy 1: not shown
heavy 2: not shown
light: B1 light
notes: as for B1
B15: GpH7-A5/GpH7-B3 variant H268_07I/GpL16-k0 (antibody, human IgG1, kappa)
heavy 1: not shown
heavy 2: not shown
light: B1 light
notes: Heterodimerized anti-glypican-3 IgG1; mutation in the GpH7-B3 chain only; also called He Ab H268I
B16: GpH7-A5/GpH7-B3 variant S267_15Y/GpL16-k0 (antibody, human IgG1, kappa)
heavy 1: not shown
heavy 2: not shown
light: B1 light
notes: Heterodimerized anti-glypican-3 IgG1; mutation in the GpH7-B3 chain only; also called He Ab S267Y
B17: GpH7-A5/GpH7-B3 variant E269_07I/GpL16-k0 (antibody, human IgG1, kappa)
heavy 1: not shown
heavy 2: not shown
light: B1 light
notes: Heterodimerized anti-glypican-3 IgG1; mutation in the GpH7-B3 chain only; also called He Ab E269I
B18: GpH7-A5/GpH7-B3 variant V266_18N/GpL16-k0 (antibody, human IgG1, kappa)
heavy 1: not shown
heavy 2: not shown
light: B1 light
notes: Heterodimerized anti-glypican-3 IgG1; mutation in the GpH7-B3 chain only; also called He Ab V266N
B19: GpH7-A5/GpH7-B3 variant S267_20W/GpL16-k0 (antibody, human IgG1, kappa)
heavy 1: not shown
heavy 2: not shown
light: B1 light
notes: Heterodimerized anti-glypican-3 IgG1; mutation in the GpH7-B3 chain only; also called He Ab S267W
B20: GpH7-A5/GpH7-B3 variant E269_15Y/GpL16-k0 (antibody, human IgG1, kappa)
heavy 1: not shown
heavy 2: not shown
light: B1 light
notes: Heterodimerized anti-glypican-3 IgG1; mutation in the GpH7-B3 chain only; also called He Ab E269Y

Legend:
[1] = biological target: T1, FcγRIIa H (FcgRIIa type H, His at position 131), extracellular domain with C-terminal His tag (human, UniProt P12318 34-217); test: SPR (Biacore), relative binding, GpH7-A5/GpH7-B3/GpL16-k0 = 100
T1 construct: extracellular domain; also called 2aH; FcgRIIa H; not shown: His tag at the C terminus
T1 sequence (looked up): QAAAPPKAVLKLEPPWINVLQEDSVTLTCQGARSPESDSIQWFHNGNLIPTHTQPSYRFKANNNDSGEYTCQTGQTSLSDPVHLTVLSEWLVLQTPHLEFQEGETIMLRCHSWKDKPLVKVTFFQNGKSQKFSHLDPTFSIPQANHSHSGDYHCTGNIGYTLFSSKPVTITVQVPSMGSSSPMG

[2] = biological target: T2, FcγRIIb, extracellular domain with C-terminal His tag (human, UniProt P31994 43-217); test: as above
T2 construct: extracellular domain; also called 2b; FcgRIIb; not shown: His tag at the C terminus
T2 sequence (looked up): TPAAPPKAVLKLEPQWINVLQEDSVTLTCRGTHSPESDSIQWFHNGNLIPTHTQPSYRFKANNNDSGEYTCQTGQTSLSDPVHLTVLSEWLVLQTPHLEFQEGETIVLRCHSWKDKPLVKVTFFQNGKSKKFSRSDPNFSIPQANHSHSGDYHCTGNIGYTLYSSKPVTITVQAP

[3] = biological target: T1, FcγRIIa H (FcgRIIa type H, His at …); test: SPR; He/Con_2aH divided by He/Con_2b (FcγRIIa H binding over FcγRIIb binding)
[4] = biological target: T3, FcγRIa extracellular domain with C-terminal His tag (human, UniProt P12314 16-292); test: SPR Biacore, antibody captured on antigen-peptide chip, FcγR as analyte
T3 construct: extracellular domain; Soluble receptor used as analyte in Biacore; also called FcgRI; FcgRIa
T3 sequence (P12314 16-292): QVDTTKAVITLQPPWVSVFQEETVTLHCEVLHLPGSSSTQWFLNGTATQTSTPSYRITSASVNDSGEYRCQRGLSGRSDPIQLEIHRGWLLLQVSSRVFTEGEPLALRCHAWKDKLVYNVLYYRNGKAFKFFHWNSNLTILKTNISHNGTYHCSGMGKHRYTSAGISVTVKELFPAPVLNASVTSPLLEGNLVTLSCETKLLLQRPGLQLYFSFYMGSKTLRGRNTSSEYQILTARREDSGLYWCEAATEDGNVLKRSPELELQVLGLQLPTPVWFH

[5] = biological target: T4, FcγRIIb extracellular domain with C-terminal His tag (human, UniProt P31994 43-217); test: as above
T4 construct: extracellular domain; Soluble receptor used as analyte in Biacore; also called FcgRIIb; CD32B
T4 sequence (looked up): T2 sequence (looked up)

| Binder | He/Con_2aH [1] | He/Con_2b [2] | He_2aH/2b (IIaH/IIb) [3] | He/Con_1a [4] | He/Con_2b [5] |
| --- | --- | --- | --- | --- | --- |
| B1 | 61.3 % of control | 218 % of control | 0.28 ratio |  |  |
| B2 |  |  |  | 104 relative, GpH7-A5/GpH7-B3/GpL16-k0 = 100 | 46.7 relative, GpH7-A5/GpH7-B3/GpL16-k0 = 100 |
| B3 | 37.9 % of control | 57.2 % of control | 0.66 ratio |  |  |
| B4 |  |  |  | 104 relative, GpH7-A5/GpH7-B3/GpL16-k0 = 100 | 42.9 relative, GpH7-A5/GpH7-B3/GpL16-k0 = 100 |
| B5 | 46.4 % of control | 89.2 % of control | 0.52 ratio |  |  |
| B6 |  |  |  | 92.7 relative, GpH7-A5/GpH7-B3/GpL16-k0 = 100 | 11.3 relative, GpH7-A5/GpH7-B3/GpL16-k0 = 100 |
| B7 |  |  |  | 93.3 relative, GpH7-A5/GpH7-B3/GpL16-k0 = 100 | 49.4 relative, GpH7-A5/GpH7-B3/GpL16-k0 = 100 |
| B8 | 29.8 % of control | 65.9 % of control | 0.45 ratio |  |  |
| B9 |  |  |  | 97.7 relative, GpH7-A5/GpH7-B3/GpL16-k0 = 100 | 48 relative, GpH7-A5/GpH7-B3/GpL16-k0 = 100 |
| B10 |  |  |  | 97.1 relative, GpH7-A5/GpH7-B3/GpL16-k0 = 100 | 25.2 relative, GpH7-A5/GpH7-B3/GpL16-k0 = 100 |
| B11 |  |  |  | 91.4 relative, GpH7-A5/GpH7-B3/GpL16-k0 = 100 | 71.9 relative, GpH7-A5/GpH7-B3/GpL16-k0 = 100 |
| B12 |  |  |  | 106 relative, GpH7-A5/GpH7-B3/GpL16-k0 = 100 | 50.6 relative, GpH7-A5/GpH7-B3/GpL16-k0 = 100 |
| B13 |  |  |  | 100 relative, GpH7-A5/GpH7-B3/GpL16-k0 = 100 | 65.9 relative, GpH7-A5/GpH7-B3/GpL16-k0 = 100 |
| B14 | 12 % of control | 71.9 % of control | 0.17 ratio |  |  |
| B15 |  |  |  | 108 relative, GpH7-A5/GpH7-B3/GpL16-k0 = 100 | 88.9 relative, GpH7-A5/GpH7-B3/GpL16-k0 = 100 |
| B16 |  |  |  | 94.2 relative, GpH7-A5/GpH7-B3/GpL16-k0 = 100 | 37.9 relative, GpH7-A5/GpH7-B3/GpL16-k0 = 100 |
| B17 |  |  |  | 103 relative, GpH7-A5/GpH7-B3/GpL16-k0 = 100 | 43.9 relative, GpH7-A5/GpH7-B3/GpL16-k0 = 100 |
| B18 |  |  |  | 99.5 relative, GpH7-A5/GpH7-B3/GpL16-k0 = 100 | 69.7 relative, GpH7-A5/GpH7-B3/GpL16-k0 = 100 |
| B19 |  |  |  | 99.4 relative, GpH7-A5/GpH7-B3/GpL16-k0 = 100 | 57.2 relative, GpH7-A5/GpH7-B3/GpL16-k0 = 100 |
| B20 |  |  |  | 106 relative, GpH7-A5/GpH7-B3/GpL16-k0 = 100 | 44.7 relative, GpH7-A5/GpH7-B3/GpL16-k0 = 100 |
